The values that follow come from patent publication US20220267463A1 (Hoffmann-La Roche, published 2022).

In general, EC50 (read off the curve) refers to the concentration at which the effect is half-maximal. Low readings indicate a more potent agent, high ones a less potent agent. In general, EC50 refers to the concentration at which the effect is half-maximal. Read a high EC50 as a need for much substance.

The target in assay [1] is T1, carcinoembryonic antigen (CEA) on MKN-45 cells (human, UniProt P06731 35-685).
T1 construct: whole, on cells; also called CEACAM5; Carcinoembryonic antigen-related cell adhesion molecule 5
T1 sequence (looked up): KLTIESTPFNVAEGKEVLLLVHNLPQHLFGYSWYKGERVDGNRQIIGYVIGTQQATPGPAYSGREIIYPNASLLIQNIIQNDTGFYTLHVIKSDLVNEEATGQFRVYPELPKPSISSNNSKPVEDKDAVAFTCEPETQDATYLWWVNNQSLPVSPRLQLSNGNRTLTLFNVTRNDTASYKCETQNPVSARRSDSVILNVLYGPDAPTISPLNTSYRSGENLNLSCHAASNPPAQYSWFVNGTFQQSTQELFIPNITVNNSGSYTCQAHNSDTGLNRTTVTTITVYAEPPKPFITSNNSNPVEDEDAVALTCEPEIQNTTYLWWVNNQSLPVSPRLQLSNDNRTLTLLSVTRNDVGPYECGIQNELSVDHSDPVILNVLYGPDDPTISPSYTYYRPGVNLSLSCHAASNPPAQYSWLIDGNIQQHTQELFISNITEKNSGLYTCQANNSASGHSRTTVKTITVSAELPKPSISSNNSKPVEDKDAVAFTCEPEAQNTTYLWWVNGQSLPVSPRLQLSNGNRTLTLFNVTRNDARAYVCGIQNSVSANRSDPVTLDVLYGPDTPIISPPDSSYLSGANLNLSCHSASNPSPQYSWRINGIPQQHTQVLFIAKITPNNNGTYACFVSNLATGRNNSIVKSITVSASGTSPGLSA
The experiment in a line: flow cytometry on MKN45 cells, hemibody mixed 1:1 with human ISO control, detection with anti-human IgG(H+L) (title: A488; legend box: FITC). (In general: Flow cytometry measures light scatter and fluorescence of single cells or particles in a stream.)
Procedure: To assess the functionality of the split antibodies or hemibodies, MKN-45 cells were detached from the culture vessel using accutase at 37° C. for 10 minutes. Subsequently, the cells were washed twice in PBS, and seeded into 96 well v-bottom plates to a final density of 4×10⁶ cells/well.
Subsequently, the cells were incubated for 1 h on ice and washed twice in PBS. The cell pellet was resuspended and 40 μl/well of detection reagent was added, either <human IgG(H+L)>FITC, (10 μg/ml) or Pb_Dotam_FITC 1:100=>(10 μg/ml) in PBS/5% FCS. After 60 min incubation on ice, the cells were washed twice in PBS and resuspended in 200 μl PBS/5% FCS for measurement of FITC fluorescence using a FACS canto.

In assay [2] the target is T1, carcinoembryonic antigen (CEA) on …. As to the kind of experiment: flow cytometry on MKN-45 cells, detection with anti-huIgG(H+L)-Alexa488. The procedure: MKN-45 cells were detached from the culture bottle using Trypsin and were counted using a Casy cell counter. After pelleting at 4° C., 300 g the cells were resuspended in FACS Buffer (2.5% FCS in PBS), adjusted to 2.0E+06 cells/mL dispensed to 96-well PP V-bottom-Platte (25 μL/well=5.0E+04 Zellen/well).
The CEA specific SPLIT antibodies (P1AF0712 or P1AF0713 respectively) were adjusted to 40 μg/mL in FACS buffer, resulting in a final concentration of 10 μg/mL. […] The cells were then washed twice in FACS buffer and resuspended in 70 μl/well FACS buffer for measurement using a FACS Canto (BD, Pharmingen). […] Both antibodies were added to the cells either separated followed by buffer or combined and incubated at 4° C. for 1 h. The cells were then washed twice in FACS buffer. After washing, the cells were resuspended in 50 μL FACS-buffer containing secondary antibody (<huIgG(H+L)>-Alexa488, c=10 μg/mL) and incubated 1 h at 4° C.

B1: PRIT Split Antibody with DOTAM-VH-P1AD8749 (antibody, human IgG1, kappa, L234A L235A)
heavy 1: QVQLVQSGAEVKKPGASVKVSCKASGYTFTEFGMNWVRQAPGQGLEWMGWINTKTGEATYVEEFKGRVTFTTDTSTSTAYMELRSLRSDDTAVYYCARWDFAYYVEAMDYWGQGTTVTVSSASTKGPSVFPLAPSSKSTSGGTAALGCLVKDYFPEPVTVSWNSGALTSGVHTFPAVLQSSGLYSLSSVVTVPSSSLGTQTYICNVNHKPSNTKVDKKVEPKSCDKTHTCPPCPAPEAAGGPSVFLFPPKPKDTLMISRTPEVTCVVVDVSHEDPEVKFNWYVDGVEVHNAKTKPREEQYNSTYRVVSVLTVLHQDWLNGKEYKCKVSNKALGAPIEKTISKAKGQPREPQVCTLPPSRDELTKNQVSLSCAVKGFYPSDIAVEWESNGQPENNYKTTPPVLDSDGSFFLVSKLTVDKSRWQQGNVFSCSVMHEALHNHYTQKSLSLSPG
heavy 2: not shown
light: DIQMTQSPSSLSASVGDRVTITCKASAAVGTYVAWYQQKPGKAPKLLIYSASYRKRGVPSRFSGSGSGTDFTLTISSLQPEDFATYYCHQYYTYPLFTFGQGTKLEIKRTVAAPSVFIFPPSDEQLKSGTASVVCLLNNFYPREAKVQWKVDNALQSGNSQESVTEQDSKDSTYSLSSTLTLSKADYEKHKVYACEVTHQGLSSPVTKSFNRGEC
notes: Full length anti-CEA (CH1A1A) human IgG1 with knob-into-hole and P329G LALA; one heavy chain carries the DOTAM VH at its C-terminus; No DOTAM VL; Bivalent for CEA; also called CEA-split-DOTAM-VH; P1_B
As for B1, in assay [1], the “EC50 (read off the curve)” value is approximately 1 µg/mL.

B2: P1AF0712 (antibody, human IgG1, kappa, L234A L235A)
heavy 1: not shown
heavy 2: QVQLVQSGAEVKKPGASVKVSCKASGYTFTEFGMNWVRQAPGQGLEWMGWINTKTGEATYVEEFKGRVTFTTDTSTSTAYMELRSLRSDDTAVYYCARWDFAYYVEAMDYWGQGTTVTVSSASTKGPSVFPLAPSSKSTSGGTAALGCLVKDYFPEPVTVSWNSGALTSGVHTFPAVLQSSGLYSLSSVVTVPSSSLGTQTYICNVNHKPSNTKVDKKVEPKSCDKTHTCPPCPAPEAAGGPSVFLFPPKPKDTLMISRTPEVTCVVVDVSHEDPEVKFNWYVDGVEVHNAKTKPREEQYNSTYRVVSVLTVLHQDWLNGKEYKCKVSNKALGAPIEKTISKAKGQPREPQVCTLPPSRDELTKNQVSLSCAVKGFYPSDIAVEWESNGQPENNYKTTPPVLDSDGSFFLVSKLTVDKSRWQQGNVFSCSVMHEALHNHYTQKSLSLSPGGGGGSGGGGSGGGGSGGGGSQAVVIQESALTTPPGETVTLTCGSSTGAVTASNYANWVQEKPDHLFTGLIGGHNNRPPGVPARFSGSLIGDKAALTIAGTQTEDEAIYFCALWYSDHWVIGGGTKLTVL
light: DIQMTQSPSSLSASVGDRVTITCKASAAVGTYVAWYQQKPGKAPKLLIYSASYRKRGVPSRFSGSGSGTDFTLTISSLQPEDFATYYCHQYYTYPLFTFGQGTKLEIKRTVAAPSVFIFPPSDEQLKSGTASVVCLLNNFYPREAKVQWKVDNALQSGNSQESVTEQDSKDSTYSLSSTLTLSKADYEKHKVYACEVTHQGLSSPVTKSFNRGEC
notes: also called CEA specific SPLIT antibody (DOTA-VL); P6_A
The molecule B2 returned an EC50 in assay [2] of 2.7 µg/mL.

B3: P1AF0713 (antibody, human IgG1, kappa, L234A L235A)
heavy 1: QVQLVQSGAEVKKPGASVKVSCKASGYTFTEFGMNWVRQAPGQGLEWMGWINTKTGEATYVEEFKGRVTFTTDTSTSTAYMELRSLRSDDTAVYYCARWDFAYYVEAMDYWGQGTTVTVSSASTKGPSVFPLAPSSKSTSGGTAALGCLVKDYFPEPVTVSWNSGALTSGVHTFPAVLQSSGLYSLSSVVTVPSSSLGTQTYICNVNHKPSNTKVDKKVEPKSCDKTHTCPPCPAPEAAGGPSVFLFPPKPKDTLMISRTPEVTCVVVDVSHEDPEVKFNWYVDGVEVHNAKTKPREEQYNSTYRVVSVLTVLHQDWLNGKEYKCKVSNKALGAPIEKTISKAKGQPREPQVCTLPPSRDELTKNQVSLSCAVKGFYPSDIAVEWESNGQPENNYKTTPPVLDSDGSFFLVSKLTVDKSRWQQGNVFSCSVMHEALHNHYTQKSLSLSPG
heavy 2: not shown
light: DIQMTQSPSSLSASVGDRVTITCKASAAVGTYVAWYQQKPGKAPKLLIYSASYRKRGVPSRFSGSGSGTDFTLTISSLQPEDFATYYCHQYYTYPLFTFGQGTKLEIKRTVAAPSVFIFPPSDEQLKSGTASVVCLLNNFYPREAKVQWKVDNALQSGNSQESVTEQDSKDSTYSLSSTLTLSKADYEKHKVYACEVTHQGLSSPVTKSFNRGEC
notes: also called CEA specific SPLIT antibody (DOTA-VH-AST); P6_B
As to B3, the EC50 in assay [2] was found to be 2.3 µg/mL.
